Measurements reported in article PMC10348674 (Science Advances, 2023).
Substitutions are numbered along the chain they refer to. Numbers in names are those of the source.

B1: FLAG-tagged KCTD7 WT (E. coli, for pull-down) (natural protein)
chain: MVVVTGREPDSRHSDGAMSSSEAEDDFLEPATPTATQAGHGLPLLPQEFPEVVPLNIGGAHFTTRLSTLRRYEDTMLAAMFSGRHYIPTDSEGRYFIDRDGTHFGDVLNFLRSGDLPPREHVRAVHKEAQYYAIGPLLEQLENMQPLKGEKVRQAFLGLMPYYKDHLERIVEIARLRAVQRKARFAKLKVCVFKEEMPITPYECPLLNSLRFERSESDGQLFEHHCEVDVSFGPWEAVADVYDLLHCLVTDLSAQGLTVDHQCIGVCDKHLVNHYYCKRPIYEFKITWW
B2: FLAG-tagged KCTD7 R65A (natural protein)
chain: B1 chain with R65A
B3: FLAG-tagged KCTD7 S67A (natural protein)
chain: B1 chain with S67A
B4: KCTD7 (Sf9, for the cryo-EM complex) (natural protein)
chain: B1 chain
B5: FLAG-tagged KCTD5 full-length (FL) (natural protein)
chain: MAENHCELLPPAPSGLGAGLGGGLCRRCSAGMGALAQRPGGVSKWVRLNVGGTYFLTTRQTLCRDPKSFLYRLCQADPDLDSDKDETGAYLIDRDPTYFGPVLNYLRHGKLVINKDLAEEGVLEEAEFYNITSLIKLVKDKIRERDSRISQMPVKHVYRVLQCQEEELTQMVSTMSDGWKFEQLVSIGSSYNYGNEDQAEFLCVVSKELHNTPYGTTSEPSEKAKILQERGSRM
B6: FLAG-tagged KCTD5 W179A (natural protein)
chain: B5 chain with W179A
B7: FLAG-tagged KCTD5 R159A (natural protein)
chain: B5 chain with R159A
B8: FLAG-tagged KCTD5 E167A (natural protein)
chain: B5 chain with E167A
B9: FLAG-tagged KCTD5 D93A (natural protein)
chain: B5 chain with D93A
B10: FLAG-tagged KCTD5 R72A (natural protein)
chain: B5 chain with R72A

Assays:
[1] = molecular target: T1, Cul3NΔ22 (23-388, I342R, and L346D) (UniProt Q13618 23-388, I342R | L346D); assay: pull-down
T1 sequence (Q13618 23-388 I342R/L346D): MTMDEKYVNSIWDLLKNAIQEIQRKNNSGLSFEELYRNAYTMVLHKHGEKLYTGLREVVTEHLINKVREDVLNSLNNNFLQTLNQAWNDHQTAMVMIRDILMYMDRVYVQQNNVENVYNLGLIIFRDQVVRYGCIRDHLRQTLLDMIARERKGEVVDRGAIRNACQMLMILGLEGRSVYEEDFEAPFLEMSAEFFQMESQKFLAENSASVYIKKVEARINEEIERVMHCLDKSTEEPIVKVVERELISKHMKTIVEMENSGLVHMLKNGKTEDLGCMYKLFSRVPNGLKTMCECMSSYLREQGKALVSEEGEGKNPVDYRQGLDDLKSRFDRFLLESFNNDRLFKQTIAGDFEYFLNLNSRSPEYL

[2] = molecular target: T1, Cul3NΔ22 (23-388, I342R, and L346D); assay: cryo-EM structure
cryo-EM structure = molecular target: the molecule itself; assay: cryo-EM structure

Row | Binder | binding result [1] | binding result [2] | stoichiometry N (cryo-EM structure)
1 | B1 | binds |  | 
2 | B2 | binds |  | 
3 | B3 | binds |  | 
4 | B4 |  | binds | 5
5 | B5 | binds |  | 
6 | B6 | binds |  | 
7 | B7 | binds |  | 
8 | B8 | binds |  | 
9 | B9 | binds |  | 
10 | B10 | binds |  | 
